Here are results for 2 variants from publication PMC13233901.

First the molecules themselves.
B1: wild type (WT) estrogen receptor [human (endogenous in and MCF7)] / progesterone receptor [human (endogenous in and MCF7)] (parent)
chain 1: MTMTLHTKASGMALLHQIQGNELEPLNRPQLKIPLERPLGEVYLDSSKPAVYNYPEGAAYEFNAAAAANAQVYGQTGLPYGPGSEAAAFGSNGLGGFPPLNSVSPSPLMLLHPPPQLSPFLQPHGQQVPYYLENEPSGYTVREAGPPAFYRPNSDNRRQGGRERLASTNDKGSMAMESAKETRYCAVCNDYASGYHYGVWSCEGCKAFFKRSIQGHNDYMCPATNQCTIDKNRRKSCQACRLRKCYEVGMMKGGIRKDRRGGRMLKHKRQRDDGEGRGEVGSAGDMRAANLWPSPLMIKRSKKNSLALSLTADQMVSALLDAEPPILYSEYDPTRPFSEASMMGLLTNLADRELVHMINWAKRVPGFVDLTLHDQVHLLECAWLEILMIGLVWRSMEHPGKLLFAPNLLLDRNQGKCVEGMVEIFDMLLATSSRFRMMNLQGEEFVCLKSIILLNSGVYTFLSSTLKSLEEKDHIHRVLDKITDTLIHLMAKAGLTLQQQHQRLAQLLLILSHIRHMSNKGMEHLYSMKCKNVVPLYDLLLEMLDAHRLHAPTSRGGASVEETDQSHLATAGSTSSHSLQKYYITGEAEGFPATV
chain 2: MTELKAKGPRAPHVAGGPPSPEVGSPLLCRPAAGPFPGSQTSDTLPEVSAIPISLDGLLFPRPCQGQDPSDEKTQDQQSLSDVEGAYSRAEATRGAGGSSSSPPEKDSGLLDSVLDTLLAPSGPGQSQPSPPACEVTSSWCLFGPELPEDPPAAPATQRVLSPLMSRSGCKVGDSSGTAAAHKVLPRGLSPARQLLLPASESPHWSGAPVKPSPQAAAVEVEEEDGSESEESAGPLLKGKPRALGGAAAGGGAAAVPPGAAAGGVALVPKEDSRFSAPRVALVEQDAPMAPGRSPLATTVMDFIHVPILPLNHALLAARTRQLLEDESYDGGAGAASAFAPPRSSPCASSTPVAVGDFPDCAYPPDAEPKDDAYPLYSDFQPPALKIKEEEEGAEASARSPRSYLVAGANPAAFPDFPLGPPPPLPPRATPSRPGEAAVTAAPASASVSSASSSGSTLECILYKAEGAPPQQGPFAPPPCKAPGASGCLLPRDGLPSTSASAAAAGAAPALYPALGLNGLPQLGYQAAVLKEGLPQVYPPYLNYLRPDSEASQSPQYSFESLPQKICLICGDEASGCHYGVLTCGSCKVFFKRAMEGQHNYLCAGRNDCIVDKIRRKNCPACRLRKCCQAGMVLGGRKFKKFNKVRVVRALDAVALPQPVGVPNESQALSQRFTFSPGQDIQLIPPLINLLMSIEPDVIYAGHDNTKPDTSSSLLTSLNQLGERQLLSVVKWSKSLPGFRNLHIDDQITLIQYSWMSLMVFGLGWRSYKHVSGQMLYFAPDLILNEQRMKESSFYSLCLTMWQIPQEFVKLQVSQEEFLCMKVLLLLNTIPLEGLRSQTQFEEMRSSYIRELIKAIGLRQKGVVSSSQRFYQLTKLLDNLHDLVKQLHLYCLNTFIQSRALSVEFPEMMSEVIAAQLPKILAGMVKPLLFHKK

The assay covers variants of B1. Briefly: proximity ligation assay (PLA). Particulars: with progesterone receptor [human (endogenous in T47D and MCF7)], read off a plot.
Where [1] appears, read: MCF7 cells, basal (no added hormone), parent: 1.2.
Where [2] appears, read: T47D cells, basal (no added hormone), parent: 6.4.

As for chain 1 MTMTLHTKASGMALLHQIQGNELEPLNRPQLKIPLERPLGEVYLDSSKPAVYNYPEGAAYEFNAAAAANAQVYGQTGLPYGPGSEAAAFGSNGLGGFPPLNSVSPSPLMLLHPPPQLSPFLQPHGQQVPYYLENEPSGYTVREAGPPAFYRPNSDNRRQGGRERLASTNDKGSMAMESAKETRYCAVCNDYASGYHYGVWSCEGCKAFFKRSIQGHNDYMCPATNQCTIDKNRRKSCQACRLRKCYEVGMMKGGIRKDRRGGRMLKHKRQRDDGEGRGEVGSAGDMRAANLWPSPLMIKRSKKNSLALSLTADQMVSALLDAEPPILYSEYDPTRPFSEASMMGLLTNLADRELVHMINWAKRVPGFVDLTLHDQVHLLECAWLEILMIGLVWRSMEHPGKLLFAPNLLLDRNQGKCVEGMVEIFDMLLATSSRFRMMNLQGEEFVCLKSIILLNSGVYTFLSSTLKSLEEKDHIHRVLDKITDTLIHLMAKAGLTLQQQHQRLAQLLLILSHIRHMSNKGMEHLYSMKCKNVVPLYGLLLEMLDAHRLHAPTSRGGASVEETDQSHLATAGSTSSHSLQKYYITGEAEGFPATV [chain 1 D538G], the response stood at 0.58 Dots/Cell under setting [1] and 1 Dots/Cell under setting [2].

Take chain 1 MTMTLHTKASGMALLHQIQGNELEPLNRPQLKIPLERPLGEVYLDSSKPAVYNYPEGAAYEFNAAAAANAQVYGQTGLPYGPGSEAAAFGSNGLGGFPPLNSVSPSPLMLLHPPPQLSPFLQPHGQQVPYYLENEPSGYTVREAGPPAFYRPNSDNRRQGGRERLASTNDKGSMAMESAKETRYCAVCNDYASGYHYGVWSCEGCKAFFKRSIQGHNDYMCPATNQCTIDKNRRKSCQACRLRKCYEVGMMKGGIRKDRRGGRMLKHKRQRDDGEGRGEVGSAGDMRAANLWPSPLMIKRSKKNSLALSLTADQMVSALLDAEPPILYSEYDPTRPFSEASMMGLLTNLADRELVHMINWAKRVPGFVDLTLHDQVHLLECAWLEILMIGLVWRSMEHPGKLLFAPNLLLDRNQGKCVEGMVEIFDMLLATSSRFRMMNLQGEEFVCLKSIILLNSGVYTFLSSTLKSLEEKDHIHRVLDKITDTLIHLMAKAGLTLQQQHQRLAQLLLILSHIRHMSNKGMEHLYSMKCKNVVPLSDLLLEMLDAHRLHAPTSRGGASVEETDQSHLATAGSTSSHSLQKYYITGEAEGFPATV [chain 1 Y537S]: the response is, setting by setting: under setting [1], 0.68 Dots/Cell; (T47D cells, R5020 (10 nM) for 30 min, parent: 11) 13 Dots/Cell; under setting [2], 1.6 Dots/Cell.
